Experimental data taken from patent US20260184814A1, “BROADLY NE[…] INFLUENZA NEURAMINIDASE” (priority 2022, published 2026).
Changes are numbered by the printed parent chain.

How the values were obtained:
[1] = biological target: N2 A/Tanzania/205/2010 (82-469) S245N S247T (Influenza A virus); test: SPR (Biacore), NA on anti-Avi chip, 1:1 model; NA code NA-19 (+glyc245)
[2] = biological target: N2 A/South_Australia/34/2019 (82-469) N245S (Influenza A virus); test: SPR (Biacore), NA on anti-Avi chip, 1:1 model; NA code NA-24 (-glyc245)
[3] = biological target: N2 A/Hong_Kong/2671/2019 (82-469) N245S (Influenza A virus); test: SPR; NA-25; set-up: unit not given beside the values
[4] = biological target: N2 A/Tanzania/205/2010 (82-469) S245N S247T (Influenza A virus); test: SPR, 1:1 binding; NA-19 "+glyc245"
[5] = biological target: N2 A/South_Australia/34/2019 (82-469) N245S (Influenza A virus); test: SPR; NA-24; set-up: unit not given beside the values
[6] = biological target: N2 A/South_Australia/34/2019 (82-469) N245S (Influenza A virus); test: SPR, 1:1 binding; NA-24 "-glyc245"
[7] = biological target: N2 A/Tanzania/205/2010 (82-469) S245N S247T (Influenza A virus); test: SPR; NA-19; set-up: unit not given beside the values
[8] = biological target: N2 A/Hong_Kong/2671/2019 (82-469) N245S (Influenza A virus); test: SPR, 1:1 binding; NA-25 "-glyc245"

B1: FNI9-v4.1 (antibody, V domains shown)
VH: QVHLVQSGAEVKEPGSSVTVSCKASGGSFSNQAISWVRQAPGQGLEWMGGIFPISGTPTSAQRFQGRVTFTADESTTTVYMDLSSLRSDDTAVYYCARAGSDYFNRDLGWENYYFASWGQGTLVTVSS
VL: EIVMTQSPATLSLSSGERATLSCRASRSVSSNLAWYQQKPGQAPRLLIYDASTRATGFSARFAGSGSGTEFTLTISSLQSEDSAIYYCQQYNNWPPWTFGQGTKVEIK
fold-change in affinity compared to FNI9-v1.1 [1]: 2.47
fold-change in affinity compared to FNI9-v1.1 [2]: 1.53

B2: FNI9-v8.1 (antibody, V domains shown)
VH: B1 VH with S28T, S30N
VL: B1 VL
fold-change in affinity compared to FNI9-v1.1 [1]: 1.12
fold-change in affinity compared to FNI9-v1.1 [2]: 0.42

B3: Fab FNI9-v4.1 (Fab, V domains shown)
VH: B1 VH
VL: B1 VL
KD compared to v1.1 [3]: 1.53
Kd [4]: 8.31 nM
KD compared to v1.1 [5]: 1.66
Kd [6]: 22.8 nM
KD compared to v1.1 [7]: 1.23
Kd [8]: 1.07 nM

B4: FNI9-v9.1 (antibody, V domains shown)
VH: B1 VH with S30N, P58A, F70I
VL: B1 VL
fold-change in affinity compared to FNI9-v1.1 [1]: 4.59
fold-change in affinity compared to FNI9-v1.1 [2]: 0.99

B5: Fab FNI9-v8.1 (Fab, V domains shown)
VH: B1 VH with S28T, S30N
VL: B1 VL
KD compared to v1.1 [3]: 0.7
Kd [4]: 3.83 nM
KD compared to v1.1 [5]: 0.82
Kd [6]: 11.2 nM
KD compared to v1.1 [7]: 0.57
Kd [8]: 0.49 nM
